# Test results: publication PMC12124358 (Science Advances, 2025)
# Target: Clr4 lysine methyltransferase (KMT) domain (residues 192 to 490) (S. pombe, UniProt O60016 192-490)
# Assay: ITC
# Clr4 lysine methyltransferase (KMT) domain (residues 192 to 490), sequence (O60016 192-490): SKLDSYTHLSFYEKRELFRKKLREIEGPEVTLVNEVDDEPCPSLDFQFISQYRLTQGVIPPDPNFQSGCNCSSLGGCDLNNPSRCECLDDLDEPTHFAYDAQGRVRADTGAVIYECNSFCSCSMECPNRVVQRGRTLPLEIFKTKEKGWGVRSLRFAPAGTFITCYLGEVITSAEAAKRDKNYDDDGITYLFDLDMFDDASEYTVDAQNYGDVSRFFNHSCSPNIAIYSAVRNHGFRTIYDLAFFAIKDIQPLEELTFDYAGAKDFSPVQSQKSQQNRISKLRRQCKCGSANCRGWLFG
binder,measurement,value
"H3(1–20)_([change])-Ub_([change]), disulfide bond-linked ubiquitinated H3 tail (other) chain 1: ARTKQTARKSTGGCAPRKQL chain 2: […]",Kd,133 ± 13 µM
